Consider one substance from article doi:10.1101/2022.11.23.517744.

Where “and” joins values, the source holds several entries; their conditions need not be identical. Equal values may be shown once.

The target of the assay is human vinculin D1D2 (head domain subunits D1D2), wild type (human). The experiment in a line: native gel or EMSA. A general note: A gel shift assay detects complexes by their altered migration in electrophoresis.

Take “Shigella IpaA-VBS123 (C-terminal region with the three vinculin binding sites), wild type, GST cleaved (domain or fragment)”: the stoichiometry N (D1D2 per IpaA-VBS123) was 2 and 3.
